Here are results for one protein from patent US11986450B2, “Methods and compositions for treating infection and inflammation with selenocyanate” (National Jewish Health, priority 2017, dated 2024).

Substrate in the data set: N#CSO
As to the kind of experiment: Kinetic analysis of HOSCN metabolism. The format is biochemical. To be noted: other: recombinant mouse Sec-TrxR. The source says: FIGS. 3A-3B. Kinetic analysis of HOSCN metabolism by recombinant mouse Sec-TrxR and recombinant E. coli Cys-TrxR. […] Sec-TrxR forms that lack a selenocysteine (Sec489Cys) or truncated by the last 8 amino acids (D8) had diminished activity.

B1: recombinant mouse Sec-TrxR (Mus musculus) (protein)
chain: GGQQSFDLLVIGGGSGGLACAKEAAQLGKKVAVADYVEPSPRGTKWGLGGTCVNVGCIPKKLMHQAALLGGMIRDAHHYGWEVAQPVQHNWKTMAEAVQNHVKSLNWGHRVQLQDRKVKYFNIKASFVDEHTVRGVDKGGKATLLSAEHIVIATGGRPRYPTQVKGALEYGITSDDIFWLKESPGKTLVVGASYVALECAGFLTGIGLDTTVMMRSIPLRGFDQQMSSLVTEHMESHGTQFLKGCVPSHIKKLPTNQLQVTWEDHASGKEDTGTFDTVLWAIGRVPETRTLNLEKAGISTNPKNQKIIVDAQEATSVPHIYAIGDVAEGRPELTPTAIKAGKLLAQRLFGKSSTLMDYSNVPTTVFTPLEYGCVGLSEEEAVALHGQEHVEVYHAYYKPLEFTVADRDASQCYIKMVCMREPPQLVLGLHFLGPNAGEVTQGFALGIKCGASYAQVMQTVGIHPTCSEEVVKLHISKRSGLEPTVTGCUG
One may read the Km as the substrate concentration at which the rate is half of its maximum. As for B1, the Km is 30 µM.
